What was measured:
[1] = target: Recombinant GST-MEK5 [GST: P08515]
GST-MEK4 [GST: P08515] = assay: cell-based or functional assay
myc-tagged MEK3 = assay: cell-based or functional assay

Row | Binder | activity of MEK1 towards the substrate (His)6ERK2 (in vitro linked kinase assay) (MEK1) | enhancement of the ability of MEK3 to phosphorylate p38 (in vitro linked kinase assay) ((His)6MEK3) | increase of the ability of GST-MEK6 to phosphorylate (His)6p38 (in vitro linked kinase assay) (GST-MEK6 [GST: P08515]) | phosphorylation of GST-MEK5 (in vitro kinase assay) [1] | activity of MEK2 towards the substrate (His)6ERK2 (in vitro linked kinase assay) (MEK2) | activation of GST-MEK4 toward (His)6p38 (in vitro linked kinase assay) (GST-MEK4 [GST: P08515]) [fold] | activation of GST-MEK4 towards GST-SAPKβ (in vitro linked kinase assay) (GST-MEK4 [GST: P08515]) [fold] | MEK3 activity in anti-myc immunoprecipitates from co-transfected 293 cells (myc-tagged MEK3) [fold] | activity toward p38 of myc-tagged MEK3 immunoprecipitated from co-transfected 293 cells (myc-tagged MEK3) [fold]
1 | (His)6TAO1(1-416) (protein) MRGSHHHHHHMPSTNRAGSLKDPEIAELFFKEDPEKLFTDLREIGHGSFGAVYFARDVRTNEVVAIKKMSYSGKQSTEKWQDIIKEVKFLQRIKHPNSIEYKGCYLREHTAWLVMEYCLGSASDLLEVHKKPLQEVEIAAITHGALQGLAYLHSHTMIHRDIKAGNILLTEPGQVKLADFGSASMASPANSFVGTPYWMAPEVILAMDEGQYDGKVDVWSLGITCIELAERKPPLFNMNAMSALYHIAQNESPTLQSNEWSDYFRNFVDSCLQKIPQDRPTSEELLKHMFVLRERPETVLIDLIQRTKDAVRELDNLQYRKMKKLLFQEAHNGPAVEAQEEEEEQDHGGGRTGTVNSVGSNQSIPSMSISASSQSSSVNSLPDASDDKSELDMMEGDHTVMSNSSVIHLKPEEENYQEEGDPRTRA | completely unable to increase the activity of MEK1 or MEK2 towards the substrate (His)6ERK2 | approximately 100-fold | by 5-fold | Recombinant GST-MEK5 was not phosphorylated by (His)6TAO1(1-416) | completely unable to increase the activity of MEK1 or MEK2 towards the substrate (His)6ERK2 | 5 | 150 | – | –
2 | full-length HA-tagged TAO1 (enzyme, not shown: small tags and cut ends) MPSTNRAGSLKDPEIAELFFKEDPEKLFTDLREIGHGSFGAVYFARDVRTNEVVAIKKMSYSGKQSTEKWQDIIKEVKFLQRIKHPNSIEYKGCYLREHTAWLVMEYCLGSASDLLEVHKKPLQEVEIAAITHGALQGLAYLHSHTMIHRDIKAGNILLTEPGQVKLADFGSASMASPANSFVGTPYWMAPEVILAMDEGQYDGKVDVWSLGITCIELAERKPPLFNMNAMSALYHIAQNESPTLQSNEWSDYFRNFVDSCLQKIPQDRPTSEELLKHMFVLRERPETVLIDLIQRTKDAVRELDNLQYRKMKKLLFQEAHNGPAVEAQEEEEEQDHGGGRTGTVNSVGSNQSIPSMSISASSQSSSVNSLPDASDDKSELDMMEGDHTVMSNSSVIHLKPEEENYQEEGDPRTRASAPQSPPQVSRHKSHYRNREHFATIRTASLVTRQMQEHEQDSELREQMSGYKRMRRQHQKQLMTLENKLKAEMDEHRLRLDKDLETQRNNFAAEMEKLIKKHQASMEKEAKVMANEEKKFQQHIQAQQKKELNSFLESQKREYKLRKEQLKEELNENQSTPKKEKQEWLSKQKENIQHFQAEEEANLLRRQRQYLELECRRFKRRMLLGRHNLEQDLVREELNKRQTQKDLEHAMLLRQHESMQELEFRHLNTIQKMRCELIRLQHQTELTNQLEYNKRRERELRRKHVMEVRQQPKSLKSKELQIKKQFQDTCKIQTRQYKALRNHLLETTPKSEHKAVLKRLKEEQTRKLAILAEQYDHSINEMLSTQALRLDEAQEAECQVLKMQLQQELELLNAYQSKIKMQAEAQHDRELRELEQRVSLRRALLEQKIEEEMLALQNERTERIRSLLERQAREIEAFDSESMRLGFSNMVLSNLSPEAFSHSYPGASSWSHNPTGGSGPHWGHPMGGTPQAWGHPMQGGPQPWGHPSGPMQGVPRGSSIGVRNSPQALRRTALGGRTEQGMSRSTSVTSQISNGSHMSYT | – | – | – | – | – | – | – | 3 to 4 | 3

From patent US20040009175A1
